Measured values: PMC12019227, “Phase separation of hnRNPA1 and TERRA regulates telomeric stability”

Assays:
UP1 R55A = UP1 R55A (human, UniProt P09651 1-196, R55A); assay: ITC; ITC: 20 mM Tris-HCl pH 7.5, 150 mM NaCl, 20 C; protein 160 uM in syringe, RNA 10 uM in cell; settings: protein: recombinant; tags: C-terminal His6; single strand; crystal has 2 antiparallel strands
UP1 R146A = UP1 R146A (human, UniProt P09651 1-196, R146A); assay: as above; settings: protein: recombinant; tags: C-terminal His6; single strand; crystal has 2 antiparallel strands
Sequence of UP1 R146A (P09651 1-196 R146A): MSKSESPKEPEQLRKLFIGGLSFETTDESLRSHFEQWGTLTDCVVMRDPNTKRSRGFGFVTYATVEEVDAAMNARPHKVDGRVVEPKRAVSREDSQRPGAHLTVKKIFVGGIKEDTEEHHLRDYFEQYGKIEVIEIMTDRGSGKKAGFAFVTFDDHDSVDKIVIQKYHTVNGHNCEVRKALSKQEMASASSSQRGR

UP1 D42R = UP1 D42R (human, UniProt P09651 1-196, D42R); assay: as above; settings: protein: recombinant; tags: C-terminal His6; single strand; crystal has 2 antiparallel strands
Sequence of UP1 D42R (P09651 1-196 D42R): as the sequence (P09651 1-196 R146A) above, with D42R, A146R counted along it

UP1 V90A/R92A/S95A = UP1 V90A/R92A/S95A (human, UniProt P09651 1-196, V90A;R92A;S95A); assay: as above; settings: protein: recombinant; tags: C-terminal His6; single strand; crystal has 2 antiparallel strands
Sequence of UP1 V90A/R92A/S95A (P09651 1-196 V90A/R92A/S95A): as the sequence (P09651 1-196 R146A) above, with V90A, R92A, S95A, A146R counted along it

UP1 wt = UP1 wt (human, UniProt P09651 1-196); assay: as above; settings: protein: recombinant, tags: C-terminal His6, chain copies: 2, single strand
Sequence of UP1 wt (P09651 1-196): as the sequence (P09651 1-196 R146A) above, with A146R counted along it

UP1 Q12A/G147A = UP1 Q12A/G147A (human, UniProt P09651 1-196, Q12A;G147A); assay: as above; settings: protein: recombinant, tags: C-terminal His6, single strand
Sequence of UP1 Q12A/G147A (P09651 1-196 Q12A/G147A): as the sequence (P09651 1-196 R146A) above, with Q12A, A146R, G147A counted along it

UP1 R82A/K113A = UP1 R82A/K113A (human, UniProt P09651 1-196, R82A;K113A); assay: as above; settings: protein: recombinant, tags: C-terminal His6, single strand
Sequence of UP1 R82A/K113A (P09651 1-196 R82A/K113A): as the sequence (P09651 1-196 R146A) above, with R82A, K113A, A146R counted along it

UP1 R82A = UP1 R82A (human, UniProt P09651 1-196, R82A); assay: as above; settings: protein: recombinant; tags: C-terminal His6; single strand; crystal has 2 antiparallel strands
Sequence of UP1 R82A (P09651 1-196 R82A): as the sequence (P09651 1-196 R146A) above, with R82A, A146R counted along it

UP1 K113A = UP1 K113A (human, UniProt P09651 1-196, K113A); assay: as above; settings: protein: recombinant; tags: C-terminal His6; single strand; crystal has 2 antiparallel strands
Sequence of UP1 K113A (P09651 1-196 K113A): as the sequence (P09651 1-196 R146A) above, with K113A, A146R counted along it

UP1 D42R/R146A [1] = biological target: T1, UP1 D42R/R146A (human, UniProt P09651 1-196, D42R;R146A); assay: ITC; text: could not bind RNA at all (conflicts with table); ITC: 20 mM Tris-HCl pH 7.5, 150 mM NaCl, 20 C; protein 160 uM in syringe, RNA 10 uM in cell; settings: protein: recombinant; tags: C-terminal His6; single strand; crystal has 2 antiparallel strands
T1 sequence (P09651 1-196 D42R/R146A): as the sequence (P09651 1-196 R146A) above, with D42R counted along it

UP1 D42R/R146A [2] = biological target: T1, UP1 D42R/R146A; assay: ITC; ITC: 20 mM Tris-HCl pH 7.5, 150 mM NaCl, 20 C; protein 160 uM in syringe, RNA 10 uM in cell; settings: protein: recombinant; tags: C-terminal His6; single strand
[3] = crystal has 2 antiparallel strands

Sequence of UP1 R55A (P09651 1-196 R55A): as the sequence (P09651 1-196 R146A) above, with R55A, A146R counted along it

Binder	Kd (UP1 R55A) [nM]	Kd (UP1 R146A) [nM]	Kd (UP1 D42R) [nM]	Kd (UP1 V90A/R92A/S95A) [nM]	Kd (UP1 wt; [3]) [nM]	Kd (UP1 Q12A/G147A; [3]) [nM]	Kd (UP1 R82A/K113A; [3]) [nM]	Kd (UP1 R82A) [nM]	Kd (UP1 K113A) [nM]	Kd (UP1 D42R/R146A [1]) [nM]	Kd (UP1 wt) [nM]	Kd (UP1 D42R/R146A [2]) [nM]	Kd (UP1 Q12A/G147A) [nM]	Kd (UP1 R82A/K113A) [nM]
UUAGGGUUAGGG (ssRNA) [TERRA (UUAGGG)2]	520 ± 40	2120 ± 500	630 ± 120	1410 ± 120	270 ± 20	120 ± 20	770 ± 160	460 ± 70	300 ± 20	2260 ± 310	–	–	–	–
TTAGGGTTAGGG (ssDNA) [Telo DNA (TTAGGG)2]	–	–	–	–	–	–	–	–	–	–	80 ± 20	4030 ± 1020	210 ± 80	100 ± 30
